The target of the experiment is dynamin-like protein B (dlpB) of Dictyostelium discoideum (Dictyostelium discoideum (endogenous in AX2)) (UniProt Q54MH8). Description: co-IP; anti-dlpB antibodies on Dynabeads protein G; lysate of partially synchronized (mitotic) wild-type cells (10 °C 16 h, then 10 µM thiabendazole 3.5 h); lysis buffer 150 mM NaCl, 5 mM EGTA, 5 mM EDTA, 1% Triton X-100, 20 mM Tris-HCl pH 7.5; western blot with anti-dlpA and anti-dlpB. For orientation: Immunoblotting shows a protein as a band on a membrane.
Chain of UniProt Q54MH8 (Q54MH8 whole entry): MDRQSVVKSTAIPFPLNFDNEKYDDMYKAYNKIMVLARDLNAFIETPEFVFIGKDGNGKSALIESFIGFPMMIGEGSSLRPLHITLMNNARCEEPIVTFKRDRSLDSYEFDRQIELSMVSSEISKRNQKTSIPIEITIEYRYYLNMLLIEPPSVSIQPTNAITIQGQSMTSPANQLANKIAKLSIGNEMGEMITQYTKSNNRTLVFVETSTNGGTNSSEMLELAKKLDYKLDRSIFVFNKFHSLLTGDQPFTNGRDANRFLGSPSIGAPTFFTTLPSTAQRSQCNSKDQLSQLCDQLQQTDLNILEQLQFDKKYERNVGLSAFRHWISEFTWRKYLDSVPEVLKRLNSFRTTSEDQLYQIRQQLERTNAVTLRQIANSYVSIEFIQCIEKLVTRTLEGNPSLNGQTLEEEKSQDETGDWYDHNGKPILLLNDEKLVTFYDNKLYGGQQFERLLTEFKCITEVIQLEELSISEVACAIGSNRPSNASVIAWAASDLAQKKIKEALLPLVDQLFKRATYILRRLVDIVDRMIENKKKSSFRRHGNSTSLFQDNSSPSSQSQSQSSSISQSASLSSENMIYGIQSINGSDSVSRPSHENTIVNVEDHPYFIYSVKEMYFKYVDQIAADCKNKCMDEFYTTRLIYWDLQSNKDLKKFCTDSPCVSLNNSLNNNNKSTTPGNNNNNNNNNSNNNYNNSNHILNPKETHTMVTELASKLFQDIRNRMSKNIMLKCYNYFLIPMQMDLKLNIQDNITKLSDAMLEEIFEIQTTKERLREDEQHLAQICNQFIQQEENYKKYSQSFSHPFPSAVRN

B1: dynamin-like protein A (dlpA) of Dictyostelium discoideum (natural protein)
chain: MSVFKKKDKSDDKKKKHDEETPQGTFQPASQSTSNTNLNSLASSVNNGASVGSTNGSTPNNSNGSTPTYNHNNSAEELEKQKKEEDEKRKKSELEAAAAVVAKKKEDEEKQRKEQVELERKRRDEEIRRTNAAAANAANKELNEQVEISSLEQMGKLDPSSTIHDMFSFFPNEVYNSYEKLQYFSRDLNTAVSHPEIVFVGPRSSGKSSLIEAFIGRALNIVGGGNIVGVGGSNANGCSKRVLYLQFTNNIDFEVPKVTIKKDNTIKEFDHDIIVSIEQLNENLAKRNQLTNDYIEEPIYVSIESRTTLNLTLIDSPGLLFDQSQAESNKIESIVSSLLRPSHRLIIAVESCSQDWKSMSMGQYLKKIDPELSRSTFVFTKFHHTVRGFSSTRDINKYLSGTVPDIKGFFVTLPNHQVRASYSEANRFQEKIYQAHKRDMHALEQLQYDKRYERTIGVAPLRRYILNIVWKSYQDTIPRILKHLRSKRQTAEATLNELQKQSSSLDSTKLRSIASNYTVTFLQITEKLLSGTSEGNPSANGQTLDEEKSQQGDCGEWVDAYKEAIYIDPEEWNIPYWSSKLYGGQQLERLMAEFKAVCDNSKISEVKMDDIATASGINKLNNIPNYAWAASDLTSLISRDTFVPLIEQLCERAMYIMKRLTDIADKVIDSRRKSRCIGSSPFGGNGLNNINSGGNNGININDRLSNTDMDSLDQYPFFTHHVKNLYYDFVHRAAKGCKEKCMDEFYSSRTIYWELTEHPDSSLPSIRNDHHETKTAVCQLATKLFDSIRQRITKNVLLKLYNFFLVPMQTDLWNEIQAQITCLSNEQLEQLFEVQATREQLKQEEKKQQQILEKYSQIDEQFLKAASLFCRPLSNPTPSA
For the molecule B1, the amount of dlpA in the IP fraction as percent of that in supernatant was determined as 58%.
